The record followed here is paper PMC4476739 (PLoS ONE, 2015).

Common to all, as to experiment: BLI; fortéBio Octet Red384; RSV F variant captured on motavizumab IgG loaded on anti-human Fc probes; Fab in solution 0.007 to 0.5 μM; 30°C; PBS + 1% BSA; 1:1 fit
Details in all cases: both partners purified
Background: In BLI a coated tip is dipped into the sample, and binding shifts an interference pattern.

Test [1] has as its target T1, DS-Cav1 2-AB, foldon removed (Human respiratory syncytial virus A, …, S155C | S290C | S190F | V207L | L512C (stands in the printed letters) | L513C …).
T1 construct: RSV F glycoprotein, F1 subunit from its N-terminus to residue 511, with the DS (S155C-S290C) and Cav1 (S190F, V207L) mutations; RSV F α10 helix from residue 512 with rings A and B; Gly-Gly linker and LVPR of the thrombin site, left after cleavage; trimeric species purified after foldon removal; also called Rings AB; rings AB without foldon; source: Expi293F, transient transfection, purified from …

Test [2] has as its target T2, DS-Cav1 3-BCD, foldon removed (Human respiratory syncytial virus A, …, S155C | S290C | S190F | V207L | G519C (stands in the printed letters) | K520C …).
T2 construct: RSV F glycoprotein, F1 subunit from its N-terminus to residue 511, with the DS (S155C-S290C) and Cav1 (S190F, V207L) mutations; RSV F α10 helix from residue 512 with rings B and C; added stretch that duplicates part of the coiled-coil; ring D at 533C-534C; Gly-Gly linker and LVPR of the thrombin site, left after cleavage; trimeric species purified after foldon removal; also called rings BCD …

For test [3], the target named is T3, DS-Cav1 4-ABCD, foldon removed (Human respiratory syncytial virus A, …, S155C | S290C | S190F | V207L | L512C (stands in the printed letters) | L513C …).
T3 construct: RSV F glycoprotein, F1 subunit from its N-terminus to residue 511, with the DS (S155C-S290C) and Cav1 (S190F, V207L) mutations; RSV F α10 helix from residue 512 with rings A, B and C; added stretch that duplicates part of the coiled-coil; ring D at 533C-534C; Gly-Gly linker and LVPR of the thrombin site, left after cleavage; trimeric species purified after foldon removal; also called Rings ABCD; …

Test [4] addresses T4, DS-Cav1 4-BCDE, foldon removed (Human respiratory syncytial virus A, …, S155C | S290C | S190F | V207L | G519C (stands in the printed letters) | K520C …).
T4 construct: RSV F glycoprotein, F1 subunit from its N-terminus to residue 511, with the DS (S155C-S290C) and Cav1 (S190F, V207L) mutations; RSV F α10 helix from residue 512 with rings B and C; added stretch based on the α10 heptad repeat; ring D at 533C-534C and ring E at 540C-541C; Gly-Gly linker and LVPR of the thrombin site, left after cleavage; trimeric species purified after foldon removal; also called …

For test [5], the target named is T5, DS-Cav1 5-ABCDE, foldon removed (Human respiratory syncytial virus A, …, S155C | S290C | S190F | V207L | L512C (stands in the printed letters) | L513C …).
T5 construct: RSV F glycoprotein, F1 subunit from its N-terminus to residue 511, with the DS (S155C-S290C) and Cav1 (S190F, V207L) mutations; RSV F α10 helix from residue 512 with rings A, B and C; added stretch based on the α10 heptad repeat; ring D at 533C-534C and ring E at 540C-541C; Gly-Gly linker and LVPR of the thrombin site, left after cleavage; trimeric species purified after foldon removal; also …

B1: D25 antigen binding fragment (Fab) (Fab, V domains shown)
VH: QVQLVQSGAEVKKPGSSVMVSCQASGGPLRNYIINWLRQAPGQGPEWMGGIIPVLGTVHYAPKFQGRVTITADESTDTAYIHLISLRSEDTAMYYCATETALVVSTTYLPHYFDNWGQGTLVTVSS
VL: DIQMTQSPSSLSAAVGDRVTITCQASQDIVNYLNWYQQKPGKAPKLLIYVASNLETGVPSRFSGSGSGTDFSLTISSLQPEDVATYYCQQYDNLPLTFGGGTKVEIK
notes: Fab in solution in the Octet assays; also called site Ø-specific antibody D25
Turning to B1, the Kd – broadly, the concentration at which binding is half-saturated – in test [1] was determined as 0.21 nM; in test [2] it was 0.38 nM; in test [3], 0.32 nM; in test [4], 0.33 nM; in test [5], 0.47 nM.
